From patent US20190255154

Molecular target: T1, acyl ghrelin (active hormone) in mouse blood, Q9EQX0
T1 chain: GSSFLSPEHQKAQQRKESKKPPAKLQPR

B1: native mouse BChE (wild-type mouse butyrylcholinesterase), expressed in mice from an AAV-8 vector (protein)
chain: EEDFIITTKTGRVRGLSMPVLGGTVTAFLGIPYAQPPLGSLRFKKPQPLNKWPDIHNATQYANSCYQNIDQAFPGFQGSEMWNPNTNLSEDCLYLNVWIPVPKPKNATVMVWIYGGGFQTGTSSLPVYDGKFLARVERVIVVSMNYRVGALGFLAFPGNPDAPGNMGLFDQQLALQWVQRNIAAFGGNPKSITIFGESAGAASVSLHLLCPQSYPLFTRAILESGSSNAPWAVKHPEEARNRTLTLAKFTGCSKENEMEMIKCLRSKDPQEILRNERFVLPSDSILSINFGPTVDGDFLTDMPHTLLQLGKVKKAQILVGVNKDEGTAFLVYGAPGFSKDNDSLITRKEFQEGLNMYFPGVSRLGKEAVLFYYVDWLGEQSPEVYRDALDDVIGDYNIICPALEFTKKFAELENNAFFYFFEHRSSKLPWPEWMGVMHGYEIEFVFGLPLGRRVNYTRAEEIFSRSIMKTWANFAKYGHPNGTQGNSTMWPVFTSTEQKYLTLNTEKSKIYSKLRAPQCQFWRLFFPKVLEMTGDIDETEQEWKAGFHRWSNYMMDWQNQFNDYTSKKESCTAL
ratio of desacyl ghrelin (inactive peptide) over the active hormone in mouse blood, ghrelin ELISA, after AAV-BChE gene transfer (HCT116 colon cancer model): 2-fold rise
ratio of desacyl ghrelin (inactive peptide) over the active hormone in mouse blood, ghrelin ELISA, after AAV-BChE gene transfer (triple negative PDX model): 2-fold rise
